The target in the assay is Influenza H1 (A/Brisbane/59/2007) HA Clamp (Influenza A virus …, UniProt D5F1Q8, stabilised). In words: ELISA. The note with it: both partners purified.

B1: recombinant bat antibody C05 with human signal peptide (bat C05Hsp) (antibody, V domains shown)
VH: QVQLQESGGGLVQPGESLRLSCVGSGSSFGESTLSYYAVSWVRQAPGKGLEWLSIINAGGGDIDYADSVEGRFTISRDNSKETLYLQMTNLRVEDTGVYYCAKHMSMQQVVSAGWERADLVGDAFDVWGQGTMVTVSS
VL: DIQLTQSPSSLSASVGDRVTLTCQASQDIRKFLNWYQQKPGKGPKLLIYDASNLQRGVPSRFSGGGSGTDFTLIISSLQPEDVGTYYCQQYDGLPFTFGGGTKVVIK
notes: also called bC05Hsp; ReBA
Consider B1, for which binding was put at a Kd of 250 pM.

B2: recombinant bat antibody C05 with bat signal peptide (bC05Bsp) (antibody, V domains shown)
VH: QVQLQESGGGLVQPGESLRLSCVGSGSSFGESTLSYYAVSWVRQAPGKGLEWLSIINAGGGDIDYADSVEGRFTISRDNSKETLYLQMTNLRVEDTGVYYCAKHMSMQQVVSAGWERADLVGDAFDVWGQGTMVTVSS
VL: DIQLTQSPSSLSASVGDRVTLTCQASQDIRKFLNWYQQKPGKGPKLLIYDASNLQRGVPSRFSGGGSGTDFTLIISSLQPEDVGTYYCQQYDGLPFTFGGGTKVVIK
notes: also called ReBA
Molecule B2 registered a Kd of 390 pM.

For the origin of these results see article PMC12995615 (Frontiers in Immunology, 2026).
